According to paper PMC4653696 (The Journal of Biological Chemistry, 2015):

Tests used:
[1] = target: T1, Shs1(E344C)-capped, otherwise Cys-less septin hetero-octamer (Shs1-Cdc12-Cdc3-Cdc10-Cdc10-Cdc3-Cdc12-Shs1) (S. cerevisiae, UniProt Q07657 1-551; P32468 1-407; P32457 1-520; P25342 1-322, C29V | C148S | E344C | C40A | C278S | C124V | C253V | C279V | C266S, Alexa Fluor 555 maleimide (donor) or Alexa Fluor 647 maleimide (acceptor) on C344 (E344C)); assay: FRET or BRET; as a1 but 35 nM donor (AF555)-labelled octamers; 45 mM KCl, 50 mM Tris-HCl pH 8.0; room temperature; apparent Kd; settings: both partners purified
T1 construct: Cdc12, S. cerevisiae mitotic septin, Cys-less variant; Cdc3, S. cerevisiae mitotic septin, Cys-less variant; Cdc10, S. cerevisiae mitotic septin, Cys-less variant; Donor- and acceptor-labelled preparations are written as this one molecule; also called Shs1^AF555; Shs1^AF647; source: E. coli NiCo21 (DE3), subunits co-expressed, purified (IMAC, chitin-agarose flow-through, SEC), maleimide …
T1 sequence (Q07657 whole entry C29V/C148S/E344C, one chain of several): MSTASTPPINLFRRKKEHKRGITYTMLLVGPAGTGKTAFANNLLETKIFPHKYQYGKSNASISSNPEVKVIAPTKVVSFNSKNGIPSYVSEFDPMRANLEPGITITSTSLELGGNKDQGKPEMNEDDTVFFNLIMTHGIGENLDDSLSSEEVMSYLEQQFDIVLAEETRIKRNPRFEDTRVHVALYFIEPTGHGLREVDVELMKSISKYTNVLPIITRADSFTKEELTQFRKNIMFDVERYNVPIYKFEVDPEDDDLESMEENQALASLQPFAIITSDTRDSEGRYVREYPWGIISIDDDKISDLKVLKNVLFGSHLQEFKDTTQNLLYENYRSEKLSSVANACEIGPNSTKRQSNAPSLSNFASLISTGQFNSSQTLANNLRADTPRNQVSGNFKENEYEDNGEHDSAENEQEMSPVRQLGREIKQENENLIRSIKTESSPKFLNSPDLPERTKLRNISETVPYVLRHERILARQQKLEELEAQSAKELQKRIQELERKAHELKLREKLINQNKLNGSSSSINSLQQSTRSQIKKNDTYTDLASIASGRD

[2] = target: the molecule itself; assay: as above
[3] = target: T1, Shs1(E344C)-capped, otherwise Cys-less …; assay: FRET or BRET; as a1 but 50 nM donor (AF555)-labelled octamers; 45 mM KCl, 50 mM Tris-HCl pH 8.0; room temperature; apparent Kd; settings: both partners purified
[4] = target: the molecule itself; assay: as above
[5] = target: T1, Shs1(E344C)-capped, otherwise Cys-less …; assay: FRET or BRET; equimolar (1:1) donor- and acceptor-labelled octamers while varying ionic strength (KCl); PCA; EC50 of ionic strength and apparent Hill coefficient; settings: both partners purified
[6] = target: the molecule itself; assay: as above
[7] = target: the molecule itself; assay: FRET or BRET; standard titrations of donor-labelled rods with acceptor-labelled rods in buffers of increasing KCl concentration (corrected FRET method); result at high ionic strength; apparent Kd
[8] = target: T1, Shs1(E344C)-capped, otherwise Cys-less …; assay: FRET or BRET; 25 nM donor (AF555)-labelled octamers titrated with acceptor (AF647)-labelled octamers, serial dilutions from 100 nM; 45 mM KCl, 50 mM Tris-HCl pH 8.0; room temperature, 1 h equilibration; triplicate; PCA and curve fit; apparent Kd of end-to-end association of rods; settings: both partners purified
[9] = target: the molecule itself; assay: as above
[10] = target: T2, Shs1(Δ2–18/Δα0 E344C)-capped, otherwise Cys-less septin hetero-octamer (S. cerevisiae, UniProt Q07657 1-551; P32468 1-407; P32457 1-520; P25342 1-322, Δ2–18 | C29V | C148S | E344C | C40A | C278S | C124V | C253V | C279V | C266S, Alexa Fluor 555 maleimide (donor) on C344 (E344C)); assay: as above; settings: both partners purified
T2 construct: Cdc12, S. cerevisiae mitotic septin, Cys-less variant; Cdc3, S. cerevisiae mitotic septin, Cys-less variant; Cdc10, S. cerevisiae mitotic septin, Cys-less variant; also called Shs1 Δα0^AF555; Shs1(Δα0) complexes; source: E. coli NiCo21 (DE3), subunits co-expressed, purified (IMAC, chitin-agarose flow-through, SEC), maleimide dye-labelled; not shown: His6, N-terminal, kept; copies: 2 + 2 + 2 + 2
T2 sequence (Q07657 other isoform, or with tags, fused parts or gaps with the stated changes): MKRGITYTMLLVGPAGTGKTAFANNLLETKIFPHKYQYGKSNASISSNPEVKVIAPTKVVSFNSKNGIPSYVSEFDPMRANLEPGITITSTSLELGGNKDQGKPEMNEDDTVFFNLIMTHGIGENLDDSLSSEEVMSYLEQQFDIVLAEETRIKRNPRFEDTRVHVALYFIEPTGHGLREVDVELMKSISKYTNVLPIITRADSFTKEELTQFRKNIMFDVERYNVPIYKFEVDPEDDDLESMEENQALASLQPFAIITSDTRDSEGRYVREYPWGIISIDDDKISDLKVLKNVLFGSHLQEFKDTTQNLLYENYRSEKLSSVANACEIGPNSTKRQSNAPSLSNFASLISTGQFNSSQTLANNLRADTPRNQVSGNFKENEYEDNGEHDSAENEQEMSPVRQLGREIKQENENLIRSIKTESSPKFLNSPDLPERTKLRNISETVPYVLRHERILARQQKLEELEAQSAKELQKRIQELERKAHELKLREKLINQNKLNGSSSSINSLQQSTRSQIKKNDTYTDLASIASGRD

Kd [1]: 0.0213 µM
Kd [3]: 0.0275 µM
ionic strength (KCl) at EC50 of the FRET signal [5]: 198000 µM
Kd [8]: 0.0108 µM
Kd [10]: 0.0406 µM
B1: Cdc11(E294C)-capped, otherwise Cys-less septin hetero-octamer (Cdc11-Cdc12-Cdc3-Cdc10-Cdc10-Cdc3-Cdc12-Cdc11) (complex, S. cerevisiae)
chain 1: MSGIIDASSALRKRKHLKRGITFTVMIVGQSGSGRSTFINTLFGQQVVDTSTTILLPTDTSTEIDLQLREETVELEDDEGVKIQLNIIDTPGFGDSLDNSPSFEIISDYIRHQYDEILLEESRVRRNPRFKDGRVHAALYLINPTGHGLKEIDVEFIRQLGSLVNIIPVISKSDSLTRDELKLNKKLIMEDIDRWNLPIYNFPFDEDEISDEDYETNMYLRTLLPFAIIGSNEVYEMGGDVGTIRGRKYPWGILDVEDSSISDFVILRNALLISHLHDLKNYTHEILYERYRTCALSGESVAAESIRPNLTKLNGSSSSSTTTRRNTNPFKQSNNINNDVLNPASDMHGQSTGENNETYMTREEQIRLEEERLKAFEERVQQELLLKRQELLQREKELREIEARLEKEAKIKQEE
chain 2: MSAATATAAPVPPPVGISNLPNQRYKIVNEEGGTFTVMLAGESGLGKTTFINTLFQTVLKRADGQQHRQEPIRKTVEIDITRALLEEKHFELRVNVIDTPGFGDNVNNNKAWQPLVDFIDDQHDSYMRQEQQPYRTKKFDLRVHAVLYFIRPTGHGLKPIDIETMKRLSTRANLIPVIAKADTLTAQELQQFKSRIRQVIEAQEIRIFTPPLDADSKEDAKSGSNPDSAAVEHARQLIEAMPFAIVGSEKKFDNGQGTQVVARKYPWGLVEIENDSHSDFRKLRALLLRTYLLDLISTTQEMHYETYRRLRLEGHENTGEGNEDFTLPAIAPARKLSHNPRYKEEENALKKYFTDQVKAEEQRFRQWEQNIVNERIRLNGDLEEIQGKVKKLEEQVKSLQVKKSHLK
chain 3: MSLKEEQVSIKQDPEQEERQHDQFNDVQIKQESQDHDGVDSQYTNGTQNDDSERFEAAESDVKVEPGLGMGITSSQSEKGQVLPDQPEIKFIRRQINGYVGFANLPKQWHRRSIKNGFSFNLLVVGPDGIGKTTLMKTLFNNDDIEANLVKDYEEELANDQEEEEGQGEGHENQSQEQRHKVKIKSYESVIEENGVKLNLNVIDTEGFGDFLNNDQKSWDPIIKEIDSRFDQYLDAENKINRHSINDKRIHAVLYFIEPTGHYLKPLDLKFMQSVYEKVNLIPVIAKSDILTDEEILSFKKTIMNQLIQSNIELFKPPIYSNDDAENSHLSERLFSSLPYAVIGSNDIVENYSGNQVRGRSYPWGVIEVDNDNHSDFNLLKNLLIKQFMEELKERTSKILYENYRSSKLAKLGIKQDNSVFKEFDPISKQQEEKTLHEAKLAKLEIEMKTVFQQKVSEKEKKLQKSETELFARHKEMKEKLTKQLKALEDKKKQLELSINSASPNVNHSPVPTKKKGFLR
chain 4: MDPLSSVQPASYVGFDTITNQIEHRLLKKGFQFNIMVVGQSGLGKSTLINTLFASHLIDSATGDDISALPVTKTTEMKISTHTLVEDRVRLNINVIDTPGFGDFIDNSKAWEPIVKYIKEQHSQYLRKELTAQRERFITDTRVHAILYFLQPNGKELSRLDVEALKRLTEIANVIPVIGKSDTLTLDERTEFRELIQNEFEKYNFKIYPYDSEELTDEELELNRSVRSIIPFAVVGSENEIEINGETFRGRKTRWSAINVEDINQSDFVYLREFLIRTHLQDLIETTSYIHYEGFRARQLIALKENANSRSSAHMSSNAIQR
modifications: Alexa Fluor 555 maleimide (donor) or Alexa Fluor 647 maleimide (acceptor) on C294 (E294C); 0.7-0.8 dye molecules per subunit
notes: intact CTE (residues 303-415) restored; Cdc12, S. cerevisiae mitotic septin, Cys-less variant; Cdc3, S. cerevisiae mitotic septin, Cys-less variant; Cdc10, S. cerevisiae mitotic septin, Cys-less variant; The same preparation was labelled separately with donor (AF555) or acceptor (AF647); both are written as this one molecule; also called Cdc11^AF555; Cdc11^AF647; source: E. coli NiCo21 (DE3), …
Kd [2]: 0.0345 µM
Kd [4]: 0.0388 µM
ionic strength (KCl) at EC50 of the FRET signal [6]: 181000 µM
Kd [7]: > 0.1 µM
Kd [9]: 0.0202 µM
